Results reported in US7329737 (DYAX, dated 2008).
Numbering of substitutions follows the chain as printed.

B1: M0123-E02 (Fab, V domains shown)
VH: EVQLLESGGGLVQPGGSLRLSCAASGFTFSHYRMDWVRQAPGKGLEWVSGIYPSGGHTNYADSVKGRFTISRDNSKNTLYLQMNSLRAEDTAVYYCARDRGWYGADYWGQGTLVTVSS
VL: AQSALTQPASVSGSPGQSITISCSGTSSDVGAYYHVSWYQQHPGKAPKLMIYDVSNRPSGVSNRFSGSKSGNTASLTISGLQAEDEADYYCSLYIGTSTPWVFGGGTKLTVLG
B2: M0132-C01 (Fab, V domains shown)
VH: EVQLLESGGGLVQPGGSLRLSCAASGFTFSRYLMWWVRQAPGKGLEWVSVIGPSGGWTRYADSVKGRFTISRDNSKNTLYLQMNSLRAEDTAVYYCARHPGDYWGQGTLVTVSS
VL: AQSALTQPRSVSGSPGQSVTISCTGTGSNIDGYNYVSWYQQYPGNAPKLIIYDVGKRPSGVPNRFSGSKSGNTASLTISGLQAEDEADYYCCSYAGSYSYVFGVGTKVTVLG
B3: M0131-G06 (Fab, V domains shown)
VH: EVQLLESGGGLVQPGGSLRLSCAASGFTFSSYAMTWVRQAPGKGLEWVSSISSSGGDTAYADSVKGRFTISRDNSKNTLYLQMNSLRAEDTAVYYCATERHYIWGSYRYSWFDPWGQGTLVTVSS
VL: AQYELTQAPSASGTPGQRVTISCSGSRSNIGTNPVNWYQHVPGTAPKLLILVNNQRPSGVPDRFSGSKSGASASLAISGLQSEDEAEYYCATWDGSLNGPVFGGGTKLTVLR
B4: M0102-G11 (Fab, V domains shown)
VH: EVQLLESGGGLVQPGGSLRLSCAASGFTFSRYMMEWVRQAPGKGLEWVSGISPSGGTTKYADSVKGRFTISRDNSKNTLYLQMNSLRAEDTAVYYCTRGGYNNYYYALDVWGQGTTVTVSS
VL: DIQMTQSPDTLSLSPGERATLSCRASESVSSSYFAWYQQKRGQAPRLLIYGASRRVTGIPDRFSGSGSGTDFTLTITRLEPEDFAVYYCQQYGGSPRSFGQGTKVEIKR
B5: M0114-E02 (Fab, V domains shown)
VH: EVQLLESGGGLVQPGGSLRLSCAASGFTFSHYKMMWVRQAPGKGLEWVSYIYPSGGWTGYADSVKGRFTISRDNSKNTLYLQMNSLRAEDTAVYYCARVGPWDAFDIWGQGTMVTVSS
VL: DIQMTQSPATLSLSPGERATLSCRASQSVGGYLAWYQQKPGQAPRLLIYDASKRATGIPARFSGSGSGTDFTLTISSLEPEDFAVYYCQQRSKWPPYTFGQGTKLEIKR
B6: M0124-C12 (Fab, V domains shown)
VH: B5 VH with H31W, K33T, M35Q, Y50R, P53S, W57G, G59Y, V93M, D103G
VL: DIQMTQSPGTLSLSPGERATLSCRASQSVSSNYLAWYQQKPGKAPKLLIYAASSLQSGVPSRFSGSGSGTDFTLTISSLQPEDFATYYCQQRWTFGQGTKVEIKR
B7: M0121-H07 (Fab, V domains shown)
VH: EVQLLESGGGLVQPGGSLRLSCAASGFTFSKYYMVWVRQAPGKGLEWVSVIGPSGGWTTYADSVKGRFTISRDNSKNTLYLQMNSLRAEDTAVYYCARVDYSNYFDYWGQGTLVTVSS
VL: DIQMTQSPSSLSASVGDRVTITCRASQSISRYLNWYQQKPGKAPKLLIYAASNLQSGVPSRFSGSGSGRDYTLTISSLQPEDFVTYYCQQSYSTPWTFGQGTKVEIKR
B8: M0115-F08 (Fab, V domains shown)
VH: EVQLLESGGGLVQPGGSLRLSCAASGFTFSHYVMVWVRQAPGKGLEWVSSIYPSGGMTVYADSVKGRFTISRDNSKNTLYLQMNSLRAEDTAVYYCARRGIANSFNIWGQGTMVTVSS
VL: AQSELTQPASVSGSPGQSITISCTGTSSDVGGYNYVSWYQQHPGKAPKLMIYEVSNRPSGVSNRFSGSKSGNTASLTISGLQAEDEADYYCSSYTSSSTWVFGGGTKLTVLG
B9: M0114-F04 (Fab, V domains shown)
VH: EVQLLESGGGLVQPGGSLRLSCAASGFTFSHYYMAWVRQAPGKGLEWVSYISPSGGSTKYADSVKGRFTISRDNSKNTLYLQMNSLRAEDTAMYYCARGGGTGTFDIWGQGTMVTVSS
VL: AQSELTQPASVSGSPGQSIAISCTGTSSDIGAYPFVSWYQQHPGKAPKLLIYGVTTRPFGVSDRFSGSKSGSTASLTISGLQAEDEADYYCSSYAGGRNLPYVFGTGTTVTVLG
B10: M0118-E07 (Fab, V domains shown)
VH: EVQLLESGGGLVQPGGSLRLSCAASGFTFSHYPMDWVRQAPGKGLEWVSRIYPSGGATKYADSVKGRFTISRDNSKNTLYLQMNSLRAEDTATYYCARGGGAFDIWGQGTMVTVSS
VL: DIQMTQSPSSLSASVGDRVTITCRASQGISNYLAWYQQKPGKVPKLLIYAASTLQSGVPSRFSGSGSGTDFTLTISSLQPEDVATYYCQKYNSAPLTFGGGTKVEIKR
B11: M0102-C12 (Fab, V domains shown)
VH: B10 VH with P33L, D35G, R50V, Y52W, A57I, T93V, G100N, A102G, I105S, M111L
VL: B10 VL with L96W, G100Q
B12: M0096-D03 (Fab, V domains shown)
VH: EVQLLESGGGLVQPGGSLRLSCAASGFTFSHYWMVWVRQAPGKGLEWVSWIGPSGGGTVYADSVKGRFTISRDNSKNTLYLQMNSLRAEDTAVYYCARGNGGFDSWGRGTLVTVSS
VL: AQSELTQPRSVSGSPGQSVTISCTGTTRDVGAYKYVSWYQQYPGKAPKLMLSDVSKRPSGVPDRFSGSKSGNTASLTISGLQSEDEADYYCCSFAGSYTWIFGGGTKVTVLG
B13: M0102-H02 (Fab, V domains shown)
VH: EVQLLESGGGLVQPGGSLRLSCAASGFTFSMYRMFWVRQAPGKGLEWVSVIGPSGGQTAYADSVKGRFTISRDNSKNTLYLQMNSLRAEDTAVYYCARVGVWYGMDVWGQGTTVTVSS
VL: DIQMTQSPATLSLSPGERAALSCRASQSVSNFLAWYQQKPGQAPRLLIYGASNRATDIPARFSGSGSGTDFTLTISSLEPEDFATYYCQQANSFPLTFGGGTKVEIKR
B14: M0093-E11 (Fab, V domains shown)
VH: B13 VH with M31H, R33E, F35A, P41H, G52Y, Q57A, A59R, G100A, V101Q, W102Y
VL: DIQMTQSPATLSLSPGERATLSCRASQSVSSYLAWYQQKPGQAPRLLIYDASNRATGIPARFSGSGSGTDFTLTISSLEPEDFAVYYCQQRSNWLTFGGGTKVEIKR
B15: M0107-B05 (Fab, V domains shown)
VH: B13 VH with M31H, R33L, F35M, V50S, G52R, P53S, Q57I, A59R, V101Y, W102Y
VL: B8 VL with G32A, A46V, S92N, S96T, S98A, W100L, G112S
B16: M0092-G06 (Fab, V domains shown)
VH: B13 VH with M31H, R33G, F35N, V50S, G52W, P53S, Q57Y, A59T, V101I, G104S
VL: AQSELTQPRSVSGSPGQSVTISCTGTSGEVANYNYVSWYHQDPGLVPKLKIYDVSRRPSGVPDRFSGAKSGDTASLTISGLQAEDEGDYYCASYVGNDKLVFGGGTKLTVLG
B17: M0097-F08 (Fab, V domains shown)
VH: B13 VH with M31N, R33P, F35V, Q57K, A59K
VL: DIQMTQSPSTLSASVGDRVTISCRASQGIGTHLNWYQQKLGNVPKLLIYAASGLQSGVPPRFSGSGSGTDFTLTISSLHPEDSATYFCQQSYSVPRTFGQGTKVEIKR
B18: M0113-E03 (Fab, V domains shown)
VH: EVQLLESGGGLVQPGGSLRLSCAASGFTFSRYTMFWVRQAPGKGLEWVSGIYPSGGKTIYADSVKGRFTISRDNSKNTLYLQMNSLRAEDTAVYYCATGGVFGVVDYWGQGTLVTVSS
VL: DIQMTQSPSSLSASVGDRVTITCRASQSINSYLNWYQQKPGKAPNLLIYAASSLQNGVPSRFSGSGSGTDFTLTISSLQPEDFAAYYCQQSYSTPLTFGGGTKVEIKR
B19: M0094-D08 (Fab, V domains shown)
VH: EVQLLESGGGLVQPGGSLRLSCAASGFTFSHYLMVWVRQAPGKGLEWVSGIVPSGGYTMYADSVKGRFTISRDNSKNTLYLQMNSLRAEDTAVYYCTRASYSSFGLDYWGQGTLVTVSS
VL: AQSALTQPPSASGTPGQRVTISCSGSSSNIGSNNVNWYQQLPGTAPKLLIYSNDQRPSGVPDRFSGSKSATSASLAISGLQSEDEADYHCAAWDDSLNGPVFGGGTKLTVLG
B20: M0122-A05 (Fab, V domains shown)
VH: EVQLLESGGGLVQPGGSLRLSCAASGFTFSHYPMHWVRQAPGKGLEWVSSIWPSGGHTSYADSVKGRFTISRDNSKNTLYLQMNSLRAEDTATYYCARLSQPIWGQGTLVTVSS
VL: DIQMTQSPSSFSASTGDRVTITCRASQSISRWLAWYQQKPGKAPKLLIYEASTLESGVPSTFSGSGSGTEFTLTISSLQPDDFATYYCQQYNSYPLTFGGGTKVEIKR
B21: M0136-B06 (Fab, V domains shown)
VH: EVQLLESGGGLVQPGGSLRLSCAASGFTFSSYIMIWVRQAPGKGLEWVSYIRPSGGYTKYADSVKGRFTISRDNSKNTLYLQMNSLRAEDTAVYYCARVINAGPGRGYYWRGYSYSDAFDIWGQGTMVTVSS
VL: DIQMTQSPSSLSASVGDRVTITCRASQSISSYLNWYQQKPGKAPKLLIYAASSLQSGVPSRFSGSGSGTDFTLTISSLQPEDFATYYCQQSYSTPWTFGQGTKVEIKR

What follows are binders tested against T1, hK1 (human tissue kallikrein 1), recombinant (human, UniProt P06870 25-262) (assay: SPR).
T1 construct: Expressed in P. pastoris from KLK1 cDNA and purified; enzymatically active; also called KLK1; Recombinant (Pichia) Kallikrein

Kd [nM] | koff [s⁻¹] | kon [M⁻¹ s⁻¹] | Binder
26.8 | 0.00613 | 229000 | B1
25.6 | 0.0035 | 137000 | B2
29.7 | 0.00209 | 70300 | B3
24.8 | 0.0116 | 467000 | B4
23.2 | 0.00936 | 403000 | B5
32.5 | 0.126 | 3.89e+06 | B6
32.8 | 0.0055 | 168000 | B7
32.6 | 0.0158 | 484000 | B8
30.7 | 0.0107 | 348000 | B9
31.8 | 0.0871 | 2.74e+06 | B10
35.4 | 2.62 | 7.39e+07 | B11
28.1 | 0.00945 | 337000 | B12
30.8 | 0.0105 | 340000 | B13
32.4 | 0.0436 | 1.34e+06 | B14
33.8 | 0.0203 | 600000 | B15
30.9 | 0.00663 | 215000 | B16
33.1 | 0.0117 | 353000 | B17
31.5 | 500 |  | B18
29.8 | 0.00707 | 237000 | B19
30.8 | 0.00453 | 147000 | B20
33 | 0.00661 | 200000 | B21
